Reference: patent US20250353884A1

Target: T1, Chim^C::mCH
T1 sequence: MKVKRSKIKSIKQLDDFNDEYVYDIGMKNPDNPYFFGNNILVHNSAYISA
Assay: cell-based or functional assay

B1: mTQ::Chim^N (protein, not shown: large carriers)
chain: SETGDTIHKTNWGELTVEELFNRGTRYWSEDNSKEYSANDELKVLTFDPVKDEAYYGNINYIYRHKVSKEQWEIEDEAGNTIRVTGDHSIMIERDGQLMDVKPRDMLDTDVLIVVDHN
Kapp of the PTS reaction, pH 6.0: 0.0107 s⁻¹
Kapp of the PTS reaction, pH 6.5: 0.00807 s⁻¹
Kapp of the PTS reaction, pH 7.0: 0.00724 s⁻¹
